According to patent US7186697:

Target: recombinant HIV-1 gp120 (American Biotechnology, Inc.) (HIV-1)
Test: ELISA on gp120-coated plates, culture medium

Which binding activity against HIV gp120 in culture medium (µg/ml/24 hours) does the source give for “Fab105-Protamine fusion protein (from UniProt P04553 1-51)” here?
The binding activity against HIV gp120 in culture medium (µg/ml/24 hours) was 0.1.
